Residue numbers refer to the chain shown, from its start.
T1: mouse FcγRIII (mouse, UniProt P08508 31-215)
T1 construct: also called mFcγRIII; mFcgRIII
T1 chain: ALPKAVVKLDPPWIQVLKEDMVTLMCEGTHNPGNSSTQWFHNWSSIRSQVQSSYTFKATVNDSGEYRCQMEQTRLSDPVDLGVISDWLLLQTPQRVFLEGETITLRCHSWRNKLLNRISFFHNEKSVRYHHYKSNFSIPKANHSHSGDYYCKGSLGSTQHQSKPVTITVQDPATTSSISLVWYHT

T2: mouse FcγRII (mouse, UniProt P08101 30-210)
T2 construct: also called mFcγRII; mFcgRII
T2 sequence: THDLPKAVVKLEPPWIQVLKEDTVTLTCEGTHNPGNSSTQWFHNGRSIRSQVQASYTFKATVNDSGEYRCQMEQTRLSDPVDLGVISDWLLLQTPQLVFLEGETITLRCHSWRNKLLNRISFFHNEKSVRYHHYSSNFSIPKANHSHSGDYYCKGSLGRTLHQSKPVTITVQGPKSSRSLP

T3: mouse FcγRIII extracellular domain, C-terminally His-tagged (mouse, UniProt P08508 31-215)
T3 construct: the whole entry is named; also called mFcγRIII; mFcgRIII
T3 chain: T1 chain

T4: mouse FcγRII extracellular domain, C-terminally His-tagged (mouse, UniProt P08101 30-210)
T4 construct: the whole entry is named; also called mFcγRII; mFcgRII
T4 sequence: T2 sequence

B1: H237-MB883/MRAL-k0 (antibody, mouse IgG1, kappa)
heavy: QVQLQESGPGLVKPSETLSLTCAVSGHSISHDHAWSWVRQPPGEGLEWIGFISYSGITNYNPSLQGRVTISRDNSKNTLYLQMNSLRAEDTAVYYCARSLARTTAMDYWGEGTLVTVSSAKTTPPSVYPLAPGSAAQTNSMVTLGCLVKGYFPEPVTVTWNSGSLSSGVHTFPAVLQSDLYTLSSSVTVPSSTWPSETVTCNVAHPASSTKVDKKIVPRDCGCKPCICEPAEESLVFIFPPKPKDVLTITLTPKVTCVVVDISKDDPEVQFSWFVDDVEVHTAQTQPREEQFNSTFRSVSELPIMHQDWLNGKEFKCRVNSAAFPAPIEKTISKTKGRPKAPQVYTIPPPKEQMAKDKVSLTCMITDFFPEDITVEWQWNGQPAENYKNTQPIMDTDGSYFVYSKLNVQKSNWEAGNTFTCSVLHEGLHNHHTEKSLSHSPGK
light: not shown
notes: mouse IgG1 CH variant; copies: 2 + 2
B2: H237-MB765/MRAL-k0 (antibody, mouse IgG1, kappa)
heavy: B1 heavy with A231N, E233V, S234E, N320L
light: not shown
notes: as for B1
B3: H237-MB781/MRAL-k0 (antibody, mouse IgG1, kappa)
heavy: B1 heavy with A231N, E233V, S234E, A326K
light: not shown
notes: as for B1
B4: H237-MB767/MRAL-k0 (antibody, mouse IgG1, kappa)
heavy: B1 heavy with A231N, E233V, S234E, A326G
light: not shown
notes: as for B1
B5: H237-MB832/MRAL-k0 (antibody, mouse IgG1, kappa)
heavy: B1 heavy with A231N, E233V, S234E, P327Y, E329Y
light: not shown
notes: as for B1
B6: H237-MB772/MRAL-k0 (antibody, mouse IgG1, kappa)
heavy: B1 heavy with A231N, E233V, S234E, E329N
light: not shown
notes: as for B1
B7: H237-MB758/MRAL-k0 (antibody, mouse IgG1, kappa)
heavy: B1 heavy with A231N, E233V, S234E, S294M, K330R
light: not shown
notes: as for B1
B8: H237-MB768/MRAL-k0 (antibody, mouse IgG1, kappa)
heavy: B1 heavy with A231N, E233V, S234E, A326Q
light: not shown
notes: as for B1
B9: H237-MB762/MRAL-k0 (antibody, mouse IgG1, kappa)
heavy: B1 heavy with A231N, E233V, S234E, F292E
light: not shown
notes: as for B1
B10: H237-MB757/MRAL-k0 (antibody, mouse IgG1, kappa)
heavy: B1 heavy with A231N, E233V, S234E, S294M, N320D
light: not shown
notes: as for B1
B11: H237-MB769/MRAL-k0 (antibody, mouse IgG1, kappa)
heavy: B1 heavy with A231N, E233V, S234E, P327D
light: not shown
notes: as for B1
B12: H237-MB830/MRAL-k0 (antibody, mouse IgG1, kappa)
heavy: B1 heavy with A231N, E233V, S234E, P327F, E329Y
light: not shown
notes: as for B1
B13: H237-MB885/MRAL-k0 (antibody, mouse IgG1, kappa)
heavy: B1 heavy with S234E, L235S
light: not shown
notes: as for B1
B14: H237-MB778/MRAL-k0 (antibody, mouse IgG1, kappa)
heavy: B1 heavy with A231N, E233V, S234E, S333K
light: not shown
notes: as for B1
B15: H237-MB886/MRAL-k0 (antibody, mouse IgG1, kappa)
heavy: B1 heavy with A231N, S234E, L235S
light: not shown
notes: as for B1
B16: H237-MB763/MRAL-k0 (antibody, mouse IgG1, kappa)
heavy: B1 heavy with A231N, E233V, S234E, F292N
light: not shown
notes: as for B1
B17: H237-MB764/MRAL-k0 (antibody, mouse IgG1, kappa)
heavy: B1 heavy with A231N, E233V, S234E, F292T
light: not shown
notes: as for B1
B18: H237-MB884/MRAL-k0 (antibody, mouse IgG1, kappa)
heavy: B1 heavy with A231N
light: not shown
notes: as for B1
B19: H237-MB793/MRAL-k0 (antibody, mouse IgG1, kappa)
heavy: B1 heavy with E229Q, A231N, E233V, S234E, L235I
light: not shown
notes: as for B1
B20: H237-MB390/MRAL-k0 (antibody, mouse IgG1, kappa)
heavy: B1 heavy with A231N, E233V, S234E, L235D
light: not shown
notes: Template of the MB390 variants; copies: 2 + 2
B21: H237-MB439/MRAL-k0 (antibody, mouse IgG1, kappa)
heavy: B1 heavy with P230T, A231Y, E233V, S234E, L235D, S263E
light: not shown
notes: copies: 2 + 2
B22: H237-MB397/MRAL-k0 (antibody, mouse IgG1, kappa)
heavy: B1 heavy with P230T, A231Y, E233V, S234E, L235D
light: not shown
notes: Template of the MB397 variants; copies: 2 + 2

Target: T1, mouse FcγRIII
Assay: SPR (Biacore), antibody captured on Protein L, mFcγR as analyte

Binder | Kd | relative mFcγRIII-binding activity (mIgG1 = 1)
B1 | 4960 nM | 0.11 fold
B2 | 2560 nM | 0.15 fold
B3 | 2120 nM | 0.19 fold
B4 | 8790 nM | 0.04 fold
B5 | 3050 nM | 0.12 fold
B6 | 3890 nM | 0.1 fold
B7 | 2110 nM | 0.17 fold
B8 | 2030 nM | 0.2 fold
B9 | 3220 nM | 0.12 fold
B10 | 3230 nM | 0.11 fold
B11 | 4380 nM | 0.09 fold
B12 | 3380 nM | 0.1 fold
B13 | 4350 nM | 0.13 fold
B14 | 2540 nM | 0.16 fold
B15 | 7220 nM | 0.08 fold
B16 | 3970 nM | 0.1 fold
B17 | 5150 nM | 0.08 fold
B18 | 5910 nM | 0.09 fold
B19 | 5500 nM | 0.07 fold

Target: T2, mouse FcγRII
Assay: as above

Binder | Kd | relative mFcγRII-binding activity (mIgG1 = 1)
B1 | 164 nM | 2.21 fold
B2 | 39.6 nM | 6.23 fold
B3 | 40.5 nM | 6.08 fold
B4 | 117 nM | 2.1 fold
B5 | 40.4 nM | 5.16 fold
B6 | 60.5 nM | 4.07 fold
B7 | 21.5 nM | 8.57 fold
B8 | 38.9 nM | 6.34 fold
B9 | 48.1 nM | 5.12 fold
B10 | 27.8 nM | 6.63 fold
B11 | 63.2 nM | 3.9 fold
B12 | 43.6 nM | 4.78 fold
B13 | 111 nM | 3.29 fold
B14 | 34.2 nM | 7.21 fold
B15 | 246 nM | 1.47 fold
B16 | 61.9 nM | 3.98 fold
B17 | 84.9 nM | 2.9 fold
B18 | 148 nM | 2.46 fold
B19 | 179 nM | 1.37 fold

Target: T3, mouse FcγRIII extracellular domain, …
Assay: SPR Biacore T200, KD ratio
Description: (§1) The antibody H chain variable region used was the variable region H237 (SEQ ID NO: 1) of the H chain VH3-IgG1 of the anti-IL-6 receptor antibody Fv4-IgG1 described in WO2009/125825. The antibody L chain commonly used was the L chain MRAL-k0 (SEQ ID NO: 2) of the anti-IL-6 receptor antibody tocilizumab. […] The resulting variant groups were designated as MB397 variants and MB390 variants, respectively. These variants were expressed and purified by the method of Reference Example 1 and evaluated for their binding to mFcγRII and mFcγRIII by the method of Reference Example 2 using Biacore T200.
(§2) Each altered antibody was analyzed for its interaction with each Fcγ receptor prepared above using Biacore T100 (GE Healthcare Japan Corp.), Biacore T200 (GE Healthcare Japan Corp.), Biacore A100, or Biacore 4000. The running buffer used was HBS-EP+ (GE Healthcare Japan Corp.). The assay temperature was set to 25° C. The sensor chips used were chips prepared by immobilizing Protein L (ACTIGEN or BioVision) onto Series S Sensor Chip CM5 (GE Healthcare Japan Corp.) or Series S Sensor Chip CM4 (GE Healthcare Japan Corp.) by the amine coupling method.
(§3) In order to calculate the KD value of each altered antibody for FcγR, kinetic analysis was conducted according to the following method: first, the antibody of interest was captured onto any of these chips and allowed to interact with mFcγR diluted with a running buffer. For the obtained sensorgram, the assay results were globally fit into the 1:1 Langmuir binding model using Biacore Evaluation Software to calculate an association rate constant ka (L/mol/s) and a dissociation rate constant kd (1/s). From these values, the dissociation constant KD (mol/L) was calculated.

Binder | relative mFcγRIII-binding activity (MB390 = 1) | relative mFcγRIII-binding activity (mIgG1 = 1) | relative mFcγRIII-binding activity (MB397 = 1)
B20 | 1 fold | 11.9 fold | –
B21 | – | 4.5 fold | 0.23 fold
B22 | – | 19.3 fold | 1 fold

Target: T4, mouse FcγRII extracellular domain, …
Assay: SPR Biacore T200, KD ratio
Description: as §1, §2, §3

Binder | relative mFcγRII-binding activity (MB390 = 1) | relative mFcγRII-binding activity (mIgG1 = 1) | relative mFcγRII-binding activity (MB397 = 1)
B20 | 1 fold | 522 fold | –
B21 | – | 39.5 fold | 0.07 fold
B22 | – | 555 fold | 1 fold

Source: US20150203577A1 (Chugai, published 2015)
